{
  "source": "patent US20140112929A1",
  "target": "TNFR1 on human umbilical vein endothelial cells (HUVEC) (human) (UniProt P19438)",
  "sequence (P19438 30-455)": "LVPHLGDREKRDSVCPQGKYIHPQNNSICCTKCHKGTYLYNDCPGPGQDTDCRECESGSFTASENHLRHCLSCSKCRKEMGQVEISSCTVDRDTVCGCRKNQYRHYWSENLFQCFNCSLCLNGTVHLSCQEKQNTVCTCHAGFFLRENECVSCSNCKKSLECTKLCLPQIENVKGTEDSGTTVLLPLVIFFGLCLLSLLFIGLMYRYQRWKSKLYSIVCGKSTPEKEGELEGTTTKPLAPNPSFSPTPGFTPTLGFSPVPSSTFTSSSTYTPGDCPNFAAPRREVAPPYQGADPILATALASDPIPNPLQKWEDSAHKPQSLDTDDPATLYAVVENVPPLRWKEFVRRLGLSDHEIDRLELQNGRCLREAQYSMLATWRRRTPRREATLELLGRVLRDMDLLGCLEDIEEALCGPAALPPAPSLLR",
  "data": [
    {"substance": "DOM1h-131-206", "values": [
      {"measurement": "IC50 (read off the curve) [b]", "result": 0.5, "unit": "nM"}
    ]}
  ]
}
